Experimental findings from paper PMC11317129, “Bacterial histone HBb from Bdellovibrio bacteriovorus compacts DNA by bending” (Nucleic Acids Research, 2023) are described below.

The target of one series is HMfB (Methanothermus fervidus, UniProt P19267 1-69). Kind of series: MST; unit printed as M (symbol lost); 20 nM in HMfB titration; MST: 20 mM Tris pH 8.0, 150 mM NaCl, 2.5 mM 2-mercaptoethanol, 37 C 10 min (HMfB RT 5 min); EMSA 80 bp: 25 mM Tris pH 8.0, 50 mM NaCl, 50 mM KCl, 37 C; ladder EMSA/MNase/circularization: 50 mM Tris pH 7.0, 75 mM KCl, RT. The following applies: protein: recombinant; tags: N-terminal His6 (vector pET28a); chain copies: 4; label: 5' Cy5 on strand 1; blunt.

The target in series [1] is T1, HBb (Bd0055) (Bdellovibrio bacteriovorus HD100, UniProt Q6MRM1 1-64).
T1 sequence: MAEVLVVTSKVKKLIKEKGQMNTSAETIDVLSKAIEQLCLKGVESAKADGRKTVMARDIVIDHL
Kind of series: MST; unit printed as M (symbol lost); 10 nM DNA; MST: 20 mM Tris pH 8.0, 150 mM NaCl, 2.5 mM 2-mercaptoethanol, 37 C 10 min (HMfB RT 5 min); EMSA 80 bp: 25 mM Tris pH 8.0, 50 mM NaCl, 50 mM KCl, 37 C; ladder EMSA/MNase/circularization: 50 mM Tris pH 7.0, 75 mM KCl, RT. The following applies: protein: recombinant; tags: N-terminal His6 (vector pETHis1a); chain copies: 2; label: 5' Cy5 on strand 1; blunt.

Series [2] concerns the target T1, HBb (Bd0055). Kind of series: MST; unit printed as M (symbol lost); text says lower micromolar; 10 nM DNA; MST: 20 mM Tris pH 8.0, 150 mM NaCl, 2.5 mM 2-mercaptoethanol, 37 C 10 min (HMfB RT 5 min); EMSA 80 bp: 25 mM Tris pH 8.0, 50 mM NaCl, 50 mM KCl, 37 C; ladder EMSA/MNase/circularization: 50 mM Tris pH 7.0, 75 mM KCl, RT. The following applies: protein: recombinant; tags: N-terminal His6 (vector pETHis1a); chain copies: 2; label: 5' Cy5 on strand 1; blunt.

Series [3] deals with the molecule itself. Kind of series: SEC-MALS; purified HBb in solution; 1260 Infinity II HPLC with miniDAWN TREOS and Optilab T-rEX detectors.

Sequence of HMfB (P19267 whole entry): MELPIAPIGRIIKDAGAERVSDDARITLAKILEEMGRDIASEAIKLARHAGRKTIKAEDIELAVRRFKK

B1: 80 bp-GC50 [Cy5] (dsDNA)
DNA 1: TTAAAGCCCGTTAAAGCCCGTTAAAGCCCGTTAAAGCCCGTTAAAGCCCGTTAAAGCCCGTTAAAGCCCGTTAAAGCCCG
DNA 2: CGGGCTTTAACGGGCTTTAACGGGCTTTAACGGGCTTTAACGGGCTTTAACGGGCTTTAACGGGCTTTAACGGGCTTTAA
As to B1, the Kd with HMfB was determined as 3920 ± 1160 nM; in the series with HBb (Bd0055) [1], 11.1 ± 1.07 µM.

B2: 80 bp DNA [Cy5] (dsDNA)
DNA 1: CCGTACTGTCGTCTGCGGCCTTTGATTATCAATTAAAGCGTTCTACGGCGTTTTTGATCGCTCAACGTGCGGAGCTAGAT
DNA 2: ATCTAGCTCCGCACGTTGAGCGATCAAAAACGCCGTAGAACGCTTTAATTGATAATCAAAGGCCGCAGACGACAGTACGG
As for B2, the Kd is 4.84 ± 0.97 µM with HBb (Bd0055) [2] and 830 ± 270 nM with HMfB.

B3: bacterial histone HBb (Histone of B. bacteriovorus) (natural protein, Bdellovibrio bacteriovorus)
chain: MAEVLVVTSKVKKLIKEKGQMNTSAETIDVLSKAIEQLCLKGVESAKADGRKTVMARDIVIDHL
notes: theoretical molecular weight 7 kDa; Homodimer by SEC-MALS and in the crystals; also called Bd0055
On to B3, for which the “stoichiometry N” value in series [3] stood at 2.
